Several values for one entry are separate records, joined by “and”; a condition that tells them apart may be missing. Identical values can stand only once.

Assay [1] addresses T1, human CCR8 (human, UniProt P51685 1-355). In words: cell-based or functional assay.
The target of assay [2] is T1, human CCR8. In words: flow cytometry, hCCR8 transfected CHOK1 cells.
Assay [3] deals with T1, human CCR8. In words: competition flow cytometry on hCCR8 transfected CHO cells; blocked ligand CCL1-AF647 [cont.].
The target of assay [4] is pm6 (human, sulfated tyrosines at Y16 and Y17). In words: ELISA on coated peptide [cont.]. Put shortly: (§1)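 Anti-CCR8 mAbs tested at 1 μg/mL and then diluted 1/10 on CCR8-related peptides coated at 500 ng/mL in carbonate/bicarbonate buffer, 90 min at room temperature. Bound antibody developed with TMB for 15 min; optical density read as mAb reactivity.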
Chain of pm6 (human, sulfated tyrosines at Y16 and Y17) (peptide, as listed by the source): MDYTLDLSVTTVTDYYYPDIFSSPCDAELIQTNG
In assay [5] the target is pm8 (human, sulfated tyrosines at Y15, Y16 and Y17). In words: ELISA on coated peptide [cont.]. Summed up:
as §1

Assay [6] concerns the target pm5 (human, sulfated tyrosines at Y15 and Y17). In words: ELISA on coated peptide [cont.]. Put shortly: as §1
Assay [7] addresses pm3 (human, sulfated tyrosine at Y17). In words: ELISA on coated peptide [cont.]. Summed up:
as §1

The target in assay [8] is T1, human CCR8. In words: cell-based or functional assay. The source holds these as a separate data set.
Assay [9] concerns the target CCR8 SNAP-tag (human, UniProt P51685 1-355, SNAP-tag labelled with Lumi4-Terbium). In words: cell-based or functional assay.
Assay [10] has as its target T1, human CCR8. In words: competition flow cytometry on hCCR8 transfected CHO cells; blocked ligand CCL1-AF647.
Assay [11] deals with T1, human CCR8. In words: competition HTRF on HEK-293 cells with hCCR8; blocked ligand CCL1-AF647 [cont.].
In assay [12] the target is T1, human CCR8. In words: flow cytometry, human activated T cells. As for the experimental part: (§2) Briefly, 1·10⁵ cells per well in a 96 well plate were incubated with a dilution of unconjugated anti-CCR8 mAb at 10 μg/mL then diluted at 1/3.33, 4 dilution points (during 30 min at 4° C.). […] To determine EC50 value, 8 concentrations of anti-CCR8 mAb were tested. Unbound antibodies were washed away with PBS (Invitrogen by Thermofisher Scientific, Illkirch-Graffenstaden, France) supplemented by 2% Fetal Bovine Serum (Invitrogen by Thermofisher Scientific, Illkirch-Graffenstaden, France) and 2 mM EDTA (Invitrogen by Thermofisher Scientific, Illkirch-Graffenstaden, France). Subsequently, cells are centrifuged (5 min at 400 g) and bound antibody is detected with F(ab′)₂-Goat anti-Mouse IgG (H+L) Cross-Adsorbed Secondary Antibody, Alexa Fluor 488 (dilution 1/500) (Invitrogen by Thermofisher Scientific, Illkirch-Graffenstaden, France) or with F(ab′)₂-Goat anti-Human IgG Fc Secondary Antibody, PE (Invitrogen by Thermofisher Scientific, Illkirch-Graffenstaden, France) (dilution 1/1000) at 4° C. for 30 min. Detection reagent is washed away and cells are centrifuged (5 min at 400 g) and resuspended in 30 μL PBS. Bound detection antibody is quantified on a MacsQuant16 (Miltenyi, Gladbach, Germany) (B1 or B2 channel, 5000 events per acquisition).
(§3) Binding characteristics of anti-CCR8 mAb cellular reactivity was further investigated by testing their binding to activated T cells.

The target of assay [13] is T1, human CCR8. In words: flow cytometry, HUT78 cells (native CCR8). Here is the method:
The same staining protocol was applied on human CCR8 transfected CHO cell line versus wild type CHO cell line, cutaneous T cell lymphoma HUT78 cell line and human activated T cell model.
as §2

For assay [14], the target named is T2, pm4 (human, sulfated tyrosine(s) among Tyr 15, Tyr 16, Tyr 17; marked only by underlining, lost in the text). In words: ELISA on coated peptide. Here is the method: (§4) The specific binding properties of antibodies were evaluated by ELISA with coated CCR8 related peptides (500 ng/mL) in carbonate/bicarbonate buffer. Different peptides were used as described in Table 1 (see Example 1). Each anti-CCR8 mAb was tested at 1 μg/mL then diluted at 1/10. After an incubation at room temperature during 90 min, unbound mAbs were removed by washings. […] After washings, 3,3′,5,5′-tetramethylbenzidine (TMB) (Interchim, Montlugon, France) was added for 15 min. Then the optical density (OD) was determined by using a multiplate reader (Tecan, Lyon, France) and correlated with mAb reactivity on the panel of coated peptides.
T2 sequence (peptide, as listed by the source): as above

Assay [15] concerns the target T3, pm1 (human, sulfated tyrosine(s) among Tyr 15, Tyr 16, Tyr 17; marked only by underlining, lost in the text). In words: ELISA on coated peptide. As for the experimental part:
as §4

Assay [16] concerns the target T1, human CCR8. In words: flow cytometry, human activated T cells pre-incubated with 200 nM hCCL1. Here is the method: as §2, §3
The target in assay [17] is T1, human CCR8. In words: cell-based or functional assay. This is another data set of the same source.
The target of assay [18] is pm2 (human, sulfated tyrosine(s) among Tyr 15, Tyr 16, Tyr 17; marked only by underlining, lost in the text). In words: ELISA on coated peptide [cont.]. Summed up:
as §1

Assay [19] deals with T2, pm4. In words: ELISA on coated peptide [cont.]. Summed up:
as §1

Assay [20] has as its target T4, pwt1 (human).
T4 construct: also called unmodified peptide
In words: ELISA on coated peptide [cont.]. Put shortly: as §1

Assay [21] deals with T3, pm1. In words: ELISA on coated peptide [cont.]. Summed up: as §1

Chain of pm8 (human, sulfated tyrosines at Y15, Y16 and Y17) (peptide, as listed by the source): as above
Chain of pm5 (human, sulfated tyrosines at Y15 and Y17) (peptide, as listed by the source): as above
Chain of pm3 (human, sulfated tyrosine at Y17) (peptide, as listed by the source): as above
T3 sequence (peptide, as listed by the source): as above
Chain of pm2 (human, sulfated tyrosine(s) among Tyr 15, Tyr 16, Tyr 17; marked only by underlining, lost in the text) (peptide, as listed by the source): as above
T4 sequence (peptide, as listed by the source): as above

B1: 3-5 (antibody, V domains shown)
VH: EVQLLESGGGLVQPKGSLKLSCAASGFTFNPYAMNWVRQAPGRGLEWVARIRSKSNNYATYYADSVKDRFTISRDDSQDMLYLQMNNLKTEDTAMYYCVRGREAYYRYDGDYYAMDYWGQGTSVTVSS
VL: DIVMTQAAPSVPVTPGESVSISCRSSKSLLHSNGNTYLYWFLQRPGQSPQLLIYRMSNLASGVPDRFSGSGSGTAFTLRISRVEAEDVGVYYCMQHLEYPFTFGSGTKLEIK
On to B1, for which, in assay [1], the “IC50 (Gi2 BRET, pH 6.5)” value was 0.021 µg/ml and 0.143 nM; the “IC50 (Gi2 BRET, pH 7.4)” value is 0.163 nM and 0.024 µg/ml. Further, in [2], the “% positive cells” value was found to be 72.8% and the “MFI fold change to isotype ctrl” value came out at 6.32 fold. Moreover, the “IC50 (read off the curve)” value in assay [3] is around 1 µg/mL. Besides, the binding result in assay [4] was “binds”. Besides, the binding result in assay [5] is listed as “binds”. Besides, in assay [6], the binding result is “binds”. Also, the binding result in assay [7] is “binds”. In assay [8], the “hCCL1 (100 nM) residual response, Protocol #2, mAb 0.08 µg/mL” value is 81%; the “hCCL1 (100 nM) residual response, Protocol #2, mAb 0.4 µg/mL” value stood at 69%; the “hCCL1 (100 nM) residual response, Protocol #2, mAb 10 µg/mL” value is 44%; the “hCCL1 (100 nM) residual response, Protocol #3, mAb 0.05 µg/mL” value was 77%. In assay [8], the “hCCL1 (100 nM) residual response, Protocol #3, mAb 0.5 µg/mL” value worked out at 57% and the “hCCL1 (100 nM) residual response, Protocol #3, mAb 5 µg/mL” value amounted to 49%.

B2: Ref #1 (antibody, human IgG1, V domains shown)
VH: EVQLLESGGGLVQPGGSLRLSCAASGFTFSSYGMHWVRQAPGKGLEWVSAINWNGGSTGYADSVKGRFTISRDNSKNTLYLQMNSLRAEDTAVYYCARGHHSGYDGRFFDYWGQGTLVTVSS
VL: QSVLTQPPSVSGAPGQRVTISCTGSSSNIGAGYNVHWYQQLPGTAPKLLIYTNNRRPSGVPDRFSGSKSGTSASLAISGLRSEDEADYYCAAWDASLSGWVFGGGTKLTVL
notes: benchmark from WO 2021/260210; human IgG1, produced in CHO; also called TPP-21360
On to B2, for which, in assay [2], the “% positive cells” value is 75.1% and the “MFI fold change to isotype ctrl” value is 8.7 fold. In assay [9], the “% of internalization at 1 µg/ml mAb (HTRF)” value came to 126% and the “% of internalization at 10 µg/ml mAb (HTRF)” value was found to be 111%. For the same molecule, the “IC50 (read off the curve)” value in assay [10] is around 0.7 µg/mL.

B3: 3-79 (antibody, human IgG1, kappa, V domains shown)
VH: EVQLLESGGGLVQPGGSLRLSCAASGFTFNAYAMNWVRQAPGKGLEWVARIRSKSNDYATYYGDSVKGRFTISRDNSKNTLYLQMNSLRAEDTAVYYCVRGREAYYRYDGGYYAMDVWGQGTTVTVSS
VL: DIVMTQSPLSLPVTPGEPASISCRSSKSLLHSNGNTYLYWFLQKPGQSPQLLIYRVSNLASGVPDRFSGSGSGTDFTLKISRVEAEDVGVYYCMQHREYPFTFGQGTKLEIKR
notes: humanized, human IgG1 kappa
Take B3: the “IC50 (Gi2 BRET, pH 6.5)” value in assay [1] is 0.077 µg/ml and 0.514 nM. Besides, the “IC50 (Gi2 BRET, pH 7.4)” value in [1] is 0.068 µg/ml and 0.452 nM. Moreover, in assay [9], the “% of internalization at 1 µg/ml mAb (HTRF)” value was found to be 139%. Moreover, the “% of internalization at 10 µg/ml mAb (HTRF)” value in [9] turned out to be 52%. Moreover, the “IC50 (read off the curve)” value in assay [11] was around 0.2 µg/mL. The binding result in assay [4], in assay [5], in assay [6], in assay [7], in assay [14] and in [15] was “binds” each time. The “% of labelled cells” value in [12] stood at 92%; in assay [13], 97%; in [16], 92%. Besides, the “hCCL1 (100 nM) residual response, Protocol #2, mAb 0.08 µg/mL” value in [8] amounted to 94%. The “hCCL1 (100 nM) residual response, Protocol #2, mAb 0.4 µg/mL” value in assay [8] came out at 77%. Also, the “hCCL1 (100 nM) residual response, Protocol #2, mAb 10 µg/mL” value in assay [8] is 31%. Besides, the “hCCL1 (100 nM) residual response, Protocol #3, mAb 0.05 µg/mL” value in assay [8] came out at 110%. For the same molecule, the “hCCL1 (100 nM) residual response, Protocol #3, mAb 0.5 µg/mL” value in assay [8] turned out to be 76%. Moreover, in assay [8], the “hCCL1 (100 nM) residual response, Protocol #3, mAb 5 µg/mL” value came to 33%.

B4: 3-80 (antibody, human IgG1, kappa, V domains shown)
VH: QVQLVQSGPEVVKPGASVKVSCKTSGYTFTEYTIHWVRQAPGQSLEWVGGINPNNGNTRYDQKFQGRVTITRDKSASTAYMELRSLTSEDTAVYYCARVARSSGSGPYAMDYWGQGTTVTVSS
VL: DVVMTQSPLSLPVTLGDQASISCRCSQSLLHTNGDTYLHWYLQRPGQSPRLLIYKVSNRFSGVPDRFSGSGSGTDFTLKISRVEAEDVGVYFCSQSTHVPYTFGGGTKVEIKR
notes: humanized, human IgG1 kappa
Take B4: in assay [1], the “IC50 (Gi2 BRET, pH 6.5)” value was 0.011 µg/ml and 0.072 nM; the “IC50 (Gi2 BRET, pH 7.4)” value is 0.022 µg/ml and 0.148 nM. In assay [17], the “ADCC % Max lysis, NK cells Donor 3” value is 15%; the “ADCC % Max lysis, NK cells Donor 4” value was found to be 16%; the “ADCC EC50, NK cells Donor 3” value amounted to 0.505 nM; the “ADCC EC50, NK cells Donor 4” value turned out to be 0.573 nM. Besides, in assay [9], the “% of internalization at 1 µg/ml mAb (HTRF)” value amounted to 44% and the “% of internalization at 10 µg/ml mAb (HTRF)” value worked out at 29%. Besides, in assay [11], the “IC50 (read off the curve)” value is around 0.03 µg/mL. In addition, the binding result in assay [18] is given as “binds”. The binding result in assay [4] was “binds”. Moreover, the binding result in [5] is “binds”. Also, the binding result in assay [6] was “binds”. Further, the binding result in [19] is listed as “binds”. Moreover, in assay [20], the binding result is “binds”. In addition, in assay [7], the binding result is recorded as “binds”. Also, in assay [21], the binding result is recorded as “binds”. In addition, the “% of labelled cells” value in assay [13] came to 96%. In assay [8], the “hCCL1 (100 nM) residual response, Protocol #2, mAb 0.08 µg/mL” value stood at 67%; the “hCCL1 (100 nM) residual response, Protocol #2, mAb 0.4 µg/mL” value is 55%; the “hCCL1 (100 nM) residual response, Protocol #2, mAb 10 µg/mL” value is 32%; the “hCCL1 (100 nM) residual response, Protocol #3, mAb 0.05 µg/mL” value amounted to 86%. In assay [8], the “hCCL1 (100 nM) residual response, Protocol #3, mAb 0.5 µg/mL” value is 60% and the “hCCL1 (100 nM) residual response, Protocol #3, mAb 5 µg/mL” value amounted to 42%.

Values taken from patent US20260234276A1 (DOMAIN THERAPEUTICS, published 2026).
